Laboratory results from PMC3646814, “Tetramerization Reinforces the Dimer Interface of MnSOD” (PLoS ONE, 2013).
Substitutions are numbered along the chain they refer to. Names may count otherwise.

Legend:
[1] = molecular target: K184R, L185P CaMnSODc (Candida albicans)
[2] = molecular target: K184R, L185P CaMnSODc (Candida albicans); assay: SEC; HPLC-SEC (TSK gel G2000SW), as-isolated proteins, 10 µM to 200 nM with respect to monomer, 10 mM potassium phosphate pH 6.7; Kd of the step dimer to monomers, from area integrals of the elution peaks
[3] = molecular target: K184R, L185P CaMnSODc (Candida albicans); remark: listed apart in the source
[4] = molecular target: K184R, L185P CaMnSODc (Candida albicans); remark: listed apart in the source
[5] = molecular target: K184R, L185P CaMnSODc (Candida albicans); assay: crystal structure; hanging-drop vapor diffusion at 4°C, protein 7 mg/mL; methylated K182R, A183P ScMnSOD in 0.1 M tri-ammonium citrate pH 7, 20% PEG 3,350; unmodified K184R, L185P CaMnSODc in 2 M ammonium sulfate
[6] = molecular target: wild-type manganese superoxide dismutase from Candida albicans cytosol (Candida albicans); assay: SEC; HPLC-SEC (TSK gel G2000SW), as-isolated proteins, 10 µM to 200 nM with respect to monomer, 10 mM potassium phosphate pH 6.7; Kd of the step dimer to monomers, from area integrals of the elution peaks
[7] = molecular target: the molecule itself; assay: as above
[8] = molecular target: the molecule itself; assay: crystal structure; hanging-drop vapor diffusion at 4°C, protein 7 mg/mL; methylated K182R, A183P ScMnSOD in 0.1 M tri-ammonium citrate pH 7, 20% PEG 3,350; unmodified K184R, L185P CaMnSODc in 2 M ammonium sulfate

**Q.** For K184R, L185P CaMnSODc (enzyme), which rate constant of O2^- dismutation by pulse radiolysis at 1 µM to 2.2 µM enzyme [1] is on record?
**A.** 9.9e+08 M⁻¹ s⁻¹

**Q.** What about the Kd [2] of the same molecule?
**A.** 2000 nM

**Q.** What about the stoichiometry N [2] of the same molecule?
**A.** 2

**Q.** What about the pK (the pH at which the SOD activity drops by 50%), pulse radiolysis [3] of the same molecule?
**A.** 8 pH

**Q.** And the SOD activity (pulse radiolysis) after heating at 41°C (% activity lost) [4]?
**A.** 70

**Q.** And the stoichiometry N [5]?
**A.** 4

**Q.** Which stoichiometry N [6] does the source give for “wild-type manganese superoxide dismutase from Candida albicans cytosol (enzyme)” here?
**A.** 2

B1: wild-type manganese superoxide dismutase from Saccharomyces cerevisiae mitochondria (enzyme, S. cerevisiae, UniProt P00447 27-233, looked up)
chain: KVTLPDLKWDFGALEPYISGQINELHYTKHHQTYVNGFNTAVDQFQELSDLLAKEPSPANARKMIAIQQNIKFHGGGFTNHCLFWENLAPESQGGGEPPTGALAKAIDEQFGSLDELIKLTNTKLAGVQGSGWAFIVKNLSNGGKLDVVQTYNQDTVTGPLVPLVAIDAWEHAYYLQYQNKKADYFKAIWNVVNWKEASRRFDAGKI
notes: Manganese superoxide dismutase of S. cerevisiae mitochondria (ScMnSOD), expressed from a 2-kb genomic BamHI fragment containing the gene; As isolated, 0.70 Mn per monomer; also called ScMnSOD; WT ScMnSOD; source: S. cerevisiae sod2Δ strain (EG110), overexpressed from YEp352-ScMnSOD, purified
**Q.** For B1, which “stoichiometry N” value [7] is on record?
**A.** 4

B2: K182R, A183P ScMnSOD (enzyme, S. cerevisiae, UniProt P00447 27-233, looked up)
chain: B1 chain with K182R, A183P
notes: Manganese superoxide dismutase of S. cerevisiae mitochondria (ScMnSOD) with K182R and A183P; Unmethylated form used for HPLC-SEC; as isolated, 0.71 Mn per monomer; also called RP-mutant ScMnSOD; as-isolated K182R, A183P ScMnSOD; source: S. cerevisiae sod2Δ strain (EG110), overexpressed from YEp352-ScMnSOD (mutant), purified
**Q.** How did the “stoichiometry N” value [7] turn out when B2 was run?
**A.** 4

B3: methylated K182R, A183P ScMnSOD (enzyme, S. cerevisiae, UniProt P00447 27-233, looked up)
chain: B1 chain with K182R, A183P
modifications: all free amino groups of the lysine residues and the N-terminus methylated (reductive methylation, confirmed by mass spectrometry)
notes: Manganese superoxide dismutase of S. cerevisiae mitochondria (ScMnSOD) with K182R and A183P; The form that was crystallised; 0.71 Mn per monomer; theoretical mass of the methylated protein 23,589 Da; also called methylated RP-mutant ScMnSOD; source: S. cerevisiae sod2Δ strain (EG110), overexpressed, purified, then reductive methylation
**Q.** Which “stoichiometry N” value [8] does the source give for B3 here?
**A.** 4
